According to article PMC12416549 (2024):

T1: TNFR1 (Homo sapiens, UniProt P19438)
T1 chain: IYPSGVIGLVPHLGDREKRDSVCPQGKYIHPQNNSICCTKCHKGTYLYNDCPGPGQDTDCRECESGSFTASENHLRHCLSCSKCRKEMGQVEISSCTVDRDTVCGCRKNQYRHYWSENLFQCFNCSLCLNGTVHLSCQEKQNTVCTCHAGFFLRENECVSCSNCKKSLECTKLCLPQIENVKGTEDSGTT


Target: T1, TNFR1
Assay: yeast display SC50

| apparent Kd (screen) [nM] | Binder |
| --- | --- |
| 11.4 | E7L (designed binder) SMEEEVLKAAKEYEKKKKEAIEKHLEKLKAKDKEAAERFLKELEEAAKEYAKDEAKTMSEEEAKRRAKKYKEKVLLSELSEEEQKEIKEAEEKLVRTILKYVEEAAK |
| 0.49 | L40R (designed binder) SMEEEVEKAAKEYEKKKKEAIEKHLEKLKAKDKEAAERFRKELEEAAKEYAKDEAKTMSEEEAKRRAKKYKEKVLLSELSEEEQKEIKEAEEKLVRTILKYVEEAAK |
| 22.2 | Q84P (designed binder) SMEEEVEKAAKEYEKKKKEAIEKHLEKLKAKDKEAAERFLKELEEAAKEYAKDEAKTMSEEEAKRRAKKYKEKVLLSELSEEEPKEIKEAEEKLVRTILKYVEEAAK |
| 0.956 | E7D (designed binder) SMEEEVDKAAKEYEKKKKEAIEKHLEKLKAKDKEAAERFLKELEEAAKEYAKDEAKTMSEEEAKRRAKKYKEKVLLSELSEEEQKEIKEAEEKLVRTILKYVEEAAK |
| 13.8 | Y50F (designed binder) SMEEEVEKAAKEYEKKKKEAIEKHLEKLKAKDKEAAERFLKELEEAAKEFAKDEAKTMSEEEAKRRAKKYKEKVLLSELSEEEQKEIKEAEEKLVRTILKYVEEAAK |
| 0.446 | E103K (designed binder) SMEEEVEKAAKEYEKKKKEAIEKHLEKLKAKDKEAAERFLKELEEAAKEYAKDEAKTMSEEEAKRRAKKYKEKVLLSELSEEEQKEIKEAEEKLVRTILKYVKEAAK |
| 7.07 | A63E (designed binder) SMEEEVEKAAKEYEKKKKEAIEKHLEKLKAKDKEAAERFLKELEEAAKEYAKDEAKTMSEEEEKRRAKKYKEKVLLSELSEEEQKEIKEAEEKLVRTILKYVEEAAK |
| 0.49 | A51R (designed binder) SMEEEVEKAAKEYEKKKKEAIEKHLEKLKAKDKEAAERFLKELEEAAKEYRKDEAKTMSEEEAKRRAKKYKEKVLLSELSEEEQKEIKEAEEKLVRTILKYVEEAAK |
| 12.5 | Y13D (designed binder) SMEEEVEKAAKEDEKKKKEAIEKHLEKLKAKDKEAAERFLKELEEAAKEYAKDEAKTMSEEEAKRRAKKYKEKVLLSELSEEEQKEIKEAEEKLVRTILKYVEEAAK |
| 0.869 | R38M (designed binder) SMEEEVEKAAKEYEKKKKEAIEKHLEKLKAKDKEAAEMFLKELEEAAKEYAKDEAKTMSEEEAKRRAKKYKEKVLLSELSEEEQKEIKEAEEKLVRTILKYVEEAAK |
| 0.539 | E5N (designed binder) SMEENVEKAAKEYEKKKKEAIEKHLEKLKAKDKEAAERFLKELEEAAKEYAKDEAKTMSEEEAKRRAKKYKEKVLLSELSEEEQKEIKEAEEKLVRTILKYVEEAAK |
| 2.25 | T97S (designed binder) SMEEEVEKAAKEYEKKKKEAIEKHLEKLKAKDKEAAERFLKELEEAAKEYAKDEAKTMSEEEAKRRAKKYKEKVLLSELSEEEQKEIKEAEEKLVRSILKYVEEAAK |
| 0.869 | Y101I (designed binder) SMEEEVEKAAKEYEKKKKEAIEKHLEKLKAKDKEAAERFLKELEEAAKEYAKDEAKTMSEEEAKRRAKKYKEKVLLSELSEEEQKEIKEAEEKLVRTILKIVEEAAK |
| 0.869 | H24W (designed binder) SMEEEVEKAAKEYEKKKKEAIEKWLEKLKAKDKEAAERFLKELEEAAKEYAKDEAKTMSEEEAKRRAKKYKEKVLLSELSEEEQKEIKEAEEKLVRTILKYVEEAAK |
| 0.446 | Y101N (designed binder) SMEEEVEKAAKEYEKKKKEAIEKHLEKLKAKDKEAAERFLKELEEAAKEYAKDEAKTMSEEEAKRRAKKYKEKVLLSELSEEEQKEIKEAEEKLVRTILKNVEEAAK |
| 0.869 | L43V (designed binder) SMEEEVEKAAKEYEKKKKEAIEKHLEKLKAKDKEAAERFLKEVEEAAKEYAKDEAKTMSEEEAKRRAKKYKEKVLLSELSEEEQKEIKEAEEKLVRTILKYVEEAAK |
| 1.27 | E45C (designed binder) SMEEEVEKAAKEYEKKKKEAIEKHLEKLKAKDKEAAERFLKELECAAKEYAKDEAKTMSEEEAKRRAKKYKEKVLLSELSEEEQKEIKEAEEKLVRTILKYVEEAAK |
| 1.27 | S77Q (designed binder) SMEEEVEKAAKEYEKKKKEAIEKHLEKLKAKDKEAAERFLKELEEAAKEYAKDEAKTMSEEEAKRRAKKYKEKVLLQELSEEEQKEIKEAEEKLVRTILKYVEEAAK |
| 3 | K31P (designed binder) SMEEEVEKAAKEYEKKKKEAIEKHLEKLKAPDKEAAERFLKELEEAAKEYAKDEAKTMSEEEAKRRAKKYKEKVLLSELSEEEQKEIKEAEEKLVRTILKYVEEAAK |
| 13.8 | A10Y (designed binder) SMEEEVEKAYKEYEKKKKEAIEKHLEKLKAKDKEAAERFLKELEEAAKEYAKDEAKTMSEEEAKRRAKKYKEKVLLSELSEEEQKEIKEAEEKLVRTILKYVEEAAK |
| 1.4 | V102E (designed binder) SMEEEVEKAAKEYEKKKKEAIEKHLEKLKAKDKEAAERFLKELEEAAKEYAKDEAKTMSEEEAKRRAKKYKEKVLLSELSEEEQKEIKEAEEKLVRTILKYEEEAAK |
| 0.446 | E60V (designed binder) SMEEEVEKAAKEYEKKKKEAIEKHLEKLKAKDKEAAERFLKELEEAAKEYAKDEAKTMSVEEAKRRAKKYKEKVLLSELSEEEQKEIKEAEEKLVRTILKYVEEAAK |

Target: T1, TNFR1
Assay: yeast display SC50
Remark: another data set of the same source

| apparent Kd (screen) [nM] | Binder |
| --- | --- |
| 0.718 | D65H (designed binder) MTLQELLREEALRRAEAEAFRYALELLAEKFPEQKEYLLDLAEEIESQIRSLSGVDVEDVRKFLHKEWAWVKELLAEHPAELAEVEAARAARLAELRAEVEAKVAA |
| 2.48 | F63L (designed binder) MTLQELLREEALRRAEAEAFRYALELLAEKFPEQKEYLLDLAEEIESQIRSLSGVDVEDVRKLLDKEWAWVKELLAEHPAELAEVEAARAARLAELRAEVEAKVAA |
| 0.446 | E95F (designed binder) MTLQELLREEALRRAEAEAFRYALELLAEKFPEQKEYLLDLAEEIESQIRSLSGVDVEDVRKFLDKEWAWVKELLAEHPAELAEVEAARAARLAFLRAEVEAKVAA |
| 1.86 | E9K (designed binder) MTLQELLRKEALRRAEAEAFRYALELLAEKFPEQKEYLLDLAEEIESQIRSLSGVDVEDVRKFLDKEWAWVKELLAEHPAELAEVEAARAARLAELRAEVEAKVAA |
| 7.78 | D40H (designed binder) MTLQELLREEALRRAEAEAFRYALELLAEKFPEQKEYLLHLAEEIESQIRSLSGVDVEDVRKFLDKEWAWVKELLAEHPAELAEVEAARAARLAELRAEVEAKVAA |
| 0.539 | R61I (designed binder) MTLQELLREEALRRAEAEAFRYALELLAEKFPEQKEYLLDLAEEIESQIRSLSGVDVEDVIKFLDKEWAWVKELLAEHPAELAEVEAARAARLAELRAEVEAKVAA |
| 0.869 | E84I (designed binder) MTLQELLREEALRRAEAEAFRYALELLAEKFPEQKEYLLDLAEEIESQIRSLSGVDVEDVRKFLDKEWAWVKELLAEHPAELAIVEAARAARLAELRAEVEAKVAA |
| 1.05 | I45E (designed binder) MTLQELLREEALRRAEAEAFRYALELLAEKFPEQKEYLLDLAEEEESQIRSLSGVDVEDVRKFLDKEWAWVKELLAEHPAELAEVEAARAARLAELRAEVEAKVAA |
| 0.79 | E9D (designed binder) MTLQELLRDEALRRAEAEAFRYALELLAEKFPEQKEYLLDLAEEIESQIRSLSGVDVEDVRKFLDKEWAWVKELLAEHPAELAEVEAARAARLAELRAEVEAKVAA |
| 0.653 | V104G (designed binder) MTLQELLREEALRRAEAEAFRYALELLAEKFPEQKEYLLDLAEEIESQIRSLSGVDVEDVRKFLDKEWAWVKELLAEHPAELAEVEAARAARLAELRAEVEAKGAA |
| 0.79 | E73C (designed binder) MTLQELLREEALRRAEAEAFRYALELLAEKFPEQKEYLLDLAEEIESQIRSLSGVDVEDVRKFLDKEWAWVKCLLAEHPAELAEVEAARAARLAELRAEVEAKVAA |
| 0.956 | A106W (designed binder) MTLQELLREEALRRAEAEAFRYALELLAEKFPEQKEYLLDLAEEIESQIRSLSGVDVEDVRKFLDKEWAWVKELLAEHPAELAEVEAARAARLAELRAEVEAKVAW |
| 0.277 | R13F (designed binder) MTLQELLREEALFRAEAEAFRYALELLAEKFPEQKEYLLDLAEEIESQIRSLSGVDVEDVRKFLDKEWAWVKELLAEHPAELAEVEAARAARLAELRAEVEAKVAA |
